Measurements as given in IntAct's records for PubMed 29039417.

B1: BBSome complex member BBS2 (Homo sapiens), Q9BXC9 (parent)
chain: MLLPVFTLKLRHKISPRMVAIGRYDGTHPCLAAATQTGKVFIHNPHTRNQHVSASRVFQSPLESDVSLLSINQAVSCLTAGVLNPELGYDALLVGTQTNLLAYDVYNNSDLFYREVADGANAIVLGTLGDISSPLAIIGGNCALQGFNHEGSDLFWTVTGDNVNSLALCDFDGDGKKELLVGSEDFDIRVFKEDEIVAEMTETEIVTSLCPMYGSRFGYALSNGTVGVYDKTSRYWRIKSKNHAMSIHAFDLNSDGVNELITGWSNGKVDARSDRTGEVIFKDNFSSAIAGVVEGDYRMDGHIQLICCSVDGEIRGYLPGTAEMRGNLMDTSAEQDLIRELSQKKQNLLLELRNYEENAKAELASPLNEADGHRGIIPANTRLHTTLSVSLGNETQTAHTELRISTSNDTIIRAVLIFAEGIFTGESHVVHPSIHNLSSSICIPIVPPKDVPVDLHLKAFVGYRSSTQFHVFESTRQLPRFSMYALTSLDPASEPISYVNFTIAERAQRVVVWLGQNFLLPEDTHIQNAPFQVCFTSLRNGGHLHIKIKLSGEITINTDDIDLAGDIIQSMASFFAIEDLQVEADFPVYFEELRKVLVKVDEYHSVHQKLSADMADHSNLIRSLLVGAEDARLMRDMKTMKSRYMELYDLNRDLLNGYKIRCNNHTELLGNLKAVNQAIQRAGRLRVGKPKNQVITACRDAIRSNNINTLFKIMRVGTASS
partner: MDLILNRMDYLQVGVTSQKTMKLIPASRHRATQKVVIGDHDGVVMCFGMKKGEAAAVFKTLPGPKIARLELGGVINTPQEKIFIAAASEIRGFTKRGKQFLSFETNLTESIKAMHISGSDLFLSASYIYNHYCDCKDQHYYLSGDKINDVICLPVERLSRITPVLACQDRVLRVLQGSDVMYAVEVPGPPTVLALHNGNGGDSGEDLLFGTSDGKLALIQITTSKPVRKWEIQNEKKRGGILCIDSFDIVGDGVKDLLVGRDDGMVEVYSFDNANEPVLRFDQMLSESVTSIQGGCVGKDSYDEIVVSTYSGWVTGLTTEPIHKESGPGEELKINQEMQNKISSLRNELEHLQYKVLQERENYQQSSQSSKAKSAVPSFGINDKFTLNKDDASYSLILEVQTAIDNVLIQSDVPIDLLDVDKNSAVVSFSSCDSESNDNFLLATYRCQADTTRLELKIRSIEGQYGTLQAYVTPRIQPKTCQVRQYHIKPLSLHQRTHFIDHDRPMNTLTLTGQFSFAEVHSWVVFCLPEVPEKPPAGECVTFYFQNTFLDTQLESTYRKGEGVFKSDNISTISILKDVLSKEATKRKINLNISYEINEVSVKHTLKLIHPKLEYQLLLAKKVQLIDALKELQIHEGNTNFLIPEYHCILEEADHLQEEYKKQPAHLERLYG

Variants of: B1
Conditions: with BBS7, Q8IWZ6-2

| Variant | effect of a mutation on the interaction |
| --- | --- |
| V600A | with no effect |
| V600E | with no effect |
| V600K | with no effect |
| D601A | with no effect |
| D601E | with no effect |
| D601K | with no effect |
| E602A | with no effect |
| E602K | with no effect |
| Y603A | with no effect |
| Y603E | with no effect |
| Y603K | with no effect |
| H604A | with no effect |
| H604E | with no effect |
| H604K | with no effect |
| S605A | with no effect |
| S605E | disrupting interaction strength |
| S605K | with no effect |
| V606A | with no effect |
| V606E | with no effect |
| V606K | with no effect |
| H607A | disrupting interaction strength |
| H607E | with no effect |
| H607K | with no effect |

| Variant | effect of a mutation on the interaction |
| --- | --- |
| Q608A | with no effect |
| Q608E | with no effect |
| Q608K | with no effect |
| K609A | with no effect |
| K609E | with no effect |
| L610A | disrupting interaction strength |
| L610E | with no effect |
| L610K | with no effect |
| S611A | with no effect |
| S611E | with no effect |
| S611K | with no effect |
| A612E | with no effect |
| A612K | with no effect |
| D613A | with no effect |
| D613E | with no effect |
| D613K | with no effect |
| M614A | with no effect |
| M614E | with no effect |
| M614K | with no effect |
| A615E | with no effect |
| A615K | with no effect |
| D616A | with no effect |
| D616E | with no effect |

| Variant | effect of a mutation on the interaction |
| --- | --- |
| D616K | with no effect |
| H617A | with no effect |
| H617E | with no effect |
| H617K | with no effect |
| S618A | with no effect |
| S618E | with no effect |
| S618K | with no effect |
| N619A | with no effect |
| N619E | with no effect |
| N619K | with no effect |
| L620A | with no effect |
| L620E | with no effect |
| L620K | with no effect |
| I621A | with no effect |
| I621E | with no effect |
| I621K | with no effect |
| R622A | with no effect |
| R622E | with no effect |
| R622K | with no effect |
| S623A | with no effect |
| S623E | with no effect |
| S623K | with no effect |
| L624A | with no effect |

| Variant | effect of a mutation on the interaction |
| --- | --- |
| L624E | with no effect |
| L624K | with no effect |
| L625A | with no effect |
| L625E | with no effect |
| L625K | with no effect |
| V626A | with no effect |
| V626E | with no effect |
| V626K | with no effect |
| G627A | with no effect |
| G627E | with no effect |
| G627K | with no effect |
| A628E | with no effect |
| A628K | disrupting interaction strength |
| E629A | with no effect |
| E629K | with no effect |
| D630A | with no effect |
| D630E | with no effect |
| D630K | with no effect |
| A631E | with no effect |
| A631K | with no effect |
| R632A | with no effect |
| R632E | with no effect |
| R632K | with no effect |
